Target: human lactoferrin from milk (human)
Assay: SPR; lactoferrin immobilised by amine coupling on Sensor Chip CM3 (around 1000 RU); EndoE variants injected at typically 31-500 nM, 15 µl/min, 25°C, 10 mM Hepes pH 7.5, 150 mM NaCl, 0.005% surfactant P20; BIAcore 2000; 1:1 Langmuir fit, KD from mean values of the rate constants

| Substance | Kd |
| --- | --- |
| EndoE(E662Q) (from UniProt Q6U890 1-837) (enzyme) | 3.7 nM |
| EndoE(E186Q) (from UniProt Q6U890 1-837) (enzyme) | 44 nM |
